Measurements published in article PMC9005727, “ComFC mediates transport and handling of single-stranded DNA during natural transformation” (Nature Communications, 2022).

B1: XV2 62-mer ssDNA (ssDNA)
DNA: TGGGTGAACCTGCAGGTGGGCAAAGATGTCCTAGCAATGTAATCGTCAAGCTTTATGCCGTT

Experiments:
[1] = target: T1, ComFC (His6-ComFC) (Helicobacter pylori, UniProt O26008); assay: differential scanning fluorimetry (SYPRO Orange); format: binding; conditions: 20 mM Tris-Cl pH 7.5, 200 mM NaCl
T1 construct: gene HP_1473; full length, 191 residues, His6 tag kept (six His codons added at 5' end; also called ComFC-6His), pET21a, E. coli BL21(DE3) Gold
T1 sequence (O26008 1-191): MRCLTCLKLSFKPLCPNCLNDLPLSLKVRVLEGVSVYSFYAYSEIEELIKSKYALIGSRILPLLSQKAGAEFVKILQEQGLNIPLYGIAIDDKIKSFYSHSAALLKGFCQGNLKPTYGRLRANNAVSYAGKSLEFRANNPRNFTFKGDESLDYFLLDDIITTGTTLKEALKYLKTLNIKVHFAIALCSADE

[2] = target: ComFC T165A (Helicobacter pylori 26695, UniProt O26008 1-191, T165A); assay: EMSA; no significant difference from WT; conditions: protein: recombinant; label: 5'-Cy5
[3] = target: T2, ComFC WT (His6-ComFC) (Helicobacter pylori 26695, UniProt O26008 1-191); assay: EMSA; EMSA: 10 mM Tris-HCl pH 7.5, 50 mM KCl, 1 mM DTT, 0.1 ug/ul BSA, 4 °C, 30 min; native 6% TBE-PAGE; conditions: protein: recombinant; tags: His6 (text: codons added at 5' end, also written ComFC-6His); label: 5'-Cy5
T2 sequence: T1 sequence (O26008 1-191)

Row | Molecule | dTm [1] | binding result [2] | apparent K (half saturation) [3]
1 | Nc1ncnc2c1ncn2[C@@H]1O[C@H](COP(=O)(O)OP(=O)(O)O)[C@@H](O)[C@H]1O [ADP] | ADP addition also resulted in an increase in melting temperature | – | –
2 | B1 | – | binds | 300 nM
